Experimental data reported in patent publication US20240092890A1 (JUNTENDO EDUCATIONAL FOUNDATION, published 2024).
Changes are numbered by the printed parent chain.

Legend:
[1] = biological target: T1, Ins 5 type mutant CALR protein on UT-7/TPO CALR Ins 5 cells (UniProt P27797 18-417); assay: cell-based or functional assay
T1 sequence (looked up): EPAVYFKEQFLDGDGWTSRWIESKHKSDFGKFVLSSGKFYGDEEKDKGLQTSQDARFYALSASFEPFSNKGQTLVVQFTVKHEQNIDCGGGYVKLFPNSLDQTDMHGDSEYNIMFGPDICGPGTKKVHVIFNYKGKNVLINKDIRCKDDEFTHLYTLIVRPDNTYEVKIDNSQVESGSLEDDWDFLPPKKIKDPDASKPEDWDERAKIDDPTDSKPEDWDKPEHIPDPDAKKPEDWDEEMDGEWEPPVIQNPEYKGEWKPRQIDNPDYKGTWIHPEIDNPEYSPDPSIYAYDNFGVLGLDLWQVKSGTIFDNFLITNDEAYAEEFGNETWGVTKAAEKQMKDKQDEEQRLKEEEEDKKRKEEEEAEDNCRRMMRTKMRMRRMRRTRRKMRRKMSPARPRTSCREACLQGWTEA

[2] = biological target: T2, protein having an Fc region and a His-tag added to the N-terminus of SEQ ID NO: 1; assay: BLItz biolayer interferometry, Fc/His-SEQ ID NO: 1 protein on the biosensor
T2 construct: also called mutant CALR protein (antigen of the BLItz measurement); not shown: Fc region and His-tag at the N-terminus
T2 chain: RRMMRTKMRMRRM
Experimental: As another method, measurements were performed using the molecular interaction analysis system BLItz (ForteBio), which applies biolayer interferometry […]. Specifically, a protein having an Fc region and a His-tag added to the N-terminus of SEQ ID NO: 1 was immobilized at a concentration of 0.1 mg/mL using the Anti-Penta-HIS or ProteinA biosensor (ForteBio). Subsequently, the antibodies 1 to 114 made were prepared at a concentration of 500, 100, and 50 nM and reacted to acquire the dissociation constant.

B1: Antibody 62 (bispecific antibody)
chain 1: not shown
chain 2: DIQMTQSPSFVSASVGDRVTITCLASEDIYSYLAWYQQKPGKAPKLLIFAANRLQDGVPSRFSGGGSGTGFTLTISSLQPEDFATYFCLQGSKFPYTFGQGTKLEINRTVAAPSVFIFPPSDEQLKSGTASVVCLLNNFYPREAKVQWKVDNALQSGNSQESVTEQDSKDSTYSLSSTLTLSKADYEKHKVYACEVTHQGLSSPVTKSFNRGEC
In the case of B1, the “EC50 of cytotoxic activity (pM)” value [1] is reported as 91 pM and the Kd [2] is reported as under 1 pM.

B2: Antibody 56 (bispecific antibody)
chain 1: not shown
chain 2: B1 chain 2
With B2 the “EC50 of cytotoxic activity (pM)” value [1] was 45 pM and the Kd [2] was under 1 pM.

B3: Antibody 57 (bispecific antibody)
chain 1: not shown
chain 2: B1 chain 2
For B3, the “EC50 of cytotoxic activity (pM)” value [1] was 398 pM and the Kd [2] was under 1 pM.

B4: Antibody 58 (bispecific antibody)
chain 1: not shown
chain 2: B1 chain 2
B4 was tested, and the “EC50 of cytotoxic activity (pM)” value [1] was 1530 pM and the Kd [2] was under 1 pM.

B5: Antibody 59 (bispecific antibody)
chain 1: not shown
chain 2: B1 chain 2
With B5 the “EC50 of cytotoxic activity (pM)” value [1] was 469 pM and the Kd [2] was under 1 pM.

B6: Antibody 60 (bispecific antibody)
chain 1: not shown
chain 2: B1 chain 2
For B6, the “EC50 of cytotoxic activity (pM)” value [1] was 77 pM and the Kd [2] was under 1 pM.

B7: Antibody 61 (bispecific antibody)
chain 1: not shown
chain 2: B1 chain 2
In the case of B7, the “EC50 of cytotoxic activity (pM)” value [1] is reported as 9760 pM and the Kd [2] is reported as under 1 pM.

B8: Antibody 63 (bispecific antibody)
chain 1: not shown
chain 2: B1 chain 2
For B8, the “EC50 of cytotoxic activity (pM)” value [1] was 197 pM and the Kd [2] was 262 pM.

B9: Antibody 64 (bispecific antibody)
chain 1: not shown
chain 2: B1 chain 2
In the case of B9, the “EC50 of cytotoxic activity (pM)” value [1] is reported as 829 pM and the Kd [2] is reported as under 1 pM.

B10: Antibody 65 (bispecific antibody)
chain 1: not shown
chain 2: B1 chain 2
For B10, the “EC50 of cytotoxic activity (pM)” value [1] was 397 pM and the Kd [2] was under 1 pM.

B11: Antibody 66 (bispecific antibody)
chain 1: not shown
chain 2: B1 chain 2
With B11 the “EC50 of cytotoxic activity (pM)” value [1] was 115 pM and the Kd [2] was under 1 pM.

B12: Antibody 67 (bispecific antibody)
chain 1: not shown
chain 2: B1 chain 2
For B12, the “EC50 of cytotoxic activity (pM)” value [1] was 5900 pM and the Kd [2] was under 1 pM.

B13: Antibody 68 (bispecific antibody)
chain 1: not shown
chain 2: B1 chain 2 with D56S
For B13, the “EC50 of cytotoxic activity (pM)” value [1] was 27 pM and the Kd [2] was under 1 pM.

B14: Antibody 69 (bispecific antibody)
chain 1: not shown
chain 2: B1 chain 2 with D56S
For B14, the “EC50 of cytotoxic activity (pM)” value [1] was 162 pM and the Kd [2] was under 1 pM.

B15: Antibody 70 (bispecific antibody)
chain 1: not shown
chain 2: B1 chain 2 with D56S
In the case of B15, the “EC50 of cytotoxic activity (pM)” value [1] is reported as 507 pM and the Kd [2] is reported as under 1 pM.

B16: Antibody 71 (bispecific antibody)
chain 1: not shown
chain 2: B1 chain 2 with D56S
With B16 the “EC50 of cytotoxic activity (pM)” value [1] was 448 pM and the Kd [2] was 554 pM.

B17: Antibody 72 (bispecific antibody)
chain 1: not shown
chain 2: B1 chain 2 with D56S
For B17, the “EC50 of cytotoxic activity (pM)” value [1] was 93 pM and the Kd [2] was under 1 pM.

B18: Antibody 73 (bispecific antibody)
chain 1: not shown
chain 2: B1 chain 2 with D56S
B18 showed a Kd [2] of under 1 pM.

B19: Antibody 74 (bispecific antibody)
chain 1: not shown
chain 2: B1 chain 2 with D56S, N107K
In the case of B19, the “EC50 of cytotoxic activity (pM)” value [1] is reported as 31 pM and the Kd [2] is reported as under 1 pM.

B20: Antibody 75 (bispecific antibody)
chain 1: not shown
chain 2: B1 chain 2 with D56S, N107K
For B20, the “EC50 of cytotoxic activity (pM)” value [1] was 77 pM and the Kd [2] was under 1 pM.

B21: Antibody 76 (bispecific antibody)
chain 1: not shown
chain 2: B1 chain 2 with D56S, N107K
In the case of B21, the “EC50 of cytotoxic activity (pM)” value [1] is reported as 300 pM and the Kd [2] is reported as under 1 pM.

B22: Antibody 77 (bispecific antibody)
chain 1: not shown
chain 2: B1 chain 2 with D56S, N107K
For B22, the “EC50 of cytotoxic activity (pM)” value [1] was 129 pM and the Kd [2] was under 1 pM.

B23: Antibody 78 (bispecific antibody)
chain 1: not shown
chain 2: B1 chain 2 with D56S, N107K
In the case of B23, the “EC50 of cytotoxic activity (pM)” value [1] is reported as 63 pM and the Kd [2] is reported as under 1 pM.

B24: Antibody 79 (bispecific antibody)
chain 1: not shown
chain 2: B1 chain 2 with N107K
For B24, the Kd [2] was under 1 pM.

B25: Antibody 82 (bispecific antibody)
chain 1: not shown
chain 2: B1 chain 2 with F10S, V11L, D56S, G65S, G70D, F87Y, Q100P, L104V, E105D, N107K
B25 was tested, and the “EC50 of cytotoxic activity (pM)” value [1] was 22 pM and the Kd [2] was under 1 pM.

B26: Antibody 80 (bispecific antibody)
chain 1: not shown
chain 2: B1 chain 2 with F10S, V11L, G65S, G70D, F87Y, Q100P, L104V, E105D, N107K
In the case of B26, the “EC50 of cytotoxic activity (pM)” value [1] is reported as 28 pM and the Kd [2] is reported as under 1 pM.

B27: Antibody 81 (bispecific antibody)
chain 1: not shown
chain 2: B1 chain 2 with F10S, V11L, G65S, G70D, F87Y, Q100P, L104V, E105D, N107K
B27 showed a Kd [2] of under 1 pM.

B28: Antibody 83 (bispecific antibody)
chain 1: not shown
chain 2: B1 chain 2 with F10S, V11L, D56S, G65S, G70D, F87Y, Q100P, L104V, E105D, N107K
B28 was tested, and the “EC50 of cytotoxic activity (pM)” value [1] was 110 pM and the Kd [2] was under 1 pM.

B29: Antibody 84 (bispecific antibody)
chain 1: not shown
chain 2: B1 chain 2 with F10S, V11L, D56S, G65S, G70D, F87Y, Q100P, L104V, E105D, N107K
In the case of B29, the “EC50 of cytotoxic activity (pM)” value [1] is reported as 277 pM and the Kd [2] is reported as under 1 pM.

B30: Antibody 87 (bispecific antibody)
chain 1: not shown
chain 2: B1 chain 2 with F10S, V11L, D56S, G65S, G70D, F87Y, Q100P, L104V, E105D, N107K
B30 was tested, and the Kd [2] was under 1 pM.

B31: Antibody 93 (bispecific antibody)
chain 1: not shown
chain 2: B1 chain 2 with F10S, V11L, D56S, G65S, G70D, F87Y, Q100P, L104V, E105D, N107K
In the case of B31, the Kd [2] is reported as under 1 pM.

B32: Antibody 95 (bispecific antibody)
chain 1: not shown
chain 2: B1 chain 2 with F10S, V11L, G65S, G70D, F87Y, Q100P, L104V, E105D, N107K
B32 was tested, and the Kd [2] was under 1 pM.

B33: Antibody 96 (bispecific antibody)
chain 1: not shown
chain 2: B1 chain 2 with F10S, V11L, G65S, G70D, F87Y, Q100P, L104V, E105D, N107K
B33 showed a Kd [2] of under 1 pM.

B34: Antibody 97 (bispecific antibody)
chain 1: not shown
chain 2: B1 chain 2 with F10S, V11L, G65S, G70D, F87Y, Q100P, L104V, E105D, N107K
Binder B34 has a Kd [2] of under 1 pM.

B35: Antibody 98 (bispecific antibody)
chain 1: not shown
chain 2: B1 chain 2 with F10S, V11L, G65S, G70D, F87Y, Q100P, L104V, E105D, N107K
For B35, the Kd [2] was under 1 pM.

B36: Antibody 99 (bispecific antibody)
chain 1: not shown
chain 2: B1 chain 2 with F10S, V11L, G65S, G70D, F87Y, Q100P, L104V, E105D, N107K
For B36, the Kd [2] was under 1 pM.

B37: Antibody 112 (bispecific antibody, human IgG1, kappa, L234A L235A)
chain 1: not shown
chain 2: DIQMTQSPSSLSASVGDRVTITCLASEDIYSYLAWYQQKPGKAPKLLIFAANRLQDGVPSRFSGSGSGTDFTLTISSLQPEDFATYYCLQGSKFPYTFGPGTKVDIKGGGGSGGGGSGGGGSQVQLVQSGAEVKKPGSSVKVSCKASGYTFTRNFIHWIRQAPGQGLEWIGWIFPGDADTEYNQKFSGRATITADKSTSTAYMELSSLRSEDTAVYYCARGNYNYEYFDYWGQGTMVTVSSDKTHTCPPCPAPEAAGGPSVFLFPPKPKDTLMISRTPEVTCVVVDVSHEDPEVKFNWYVDGVEVHNAKTKPREEQYNSTYRVVSVLTVLHQDWLNGKEYKCKVSNKALPAPIEKTISKAKGQPREPQVCTLPPSREEMTKNQVSLSCAVKGFYPSDIAVEWESNGQPENNYKTTPPVLDSDGSFFLVSKLTVDKSRWQQGNVFSCSVMHEALHNHYTQKSLSLSPGK
chain 3: DIQMTQSPSSLSASVGDRVTITCLASEDIYSYLAWYQQKPGKAPKLLIFAANRLQDGVPSRFSGSGSGTDFTLTISSLQPEDFATYYCLQGSKFPYTFGPGTKVDIKRTVAAPSVFIFPPSDEQLKSGTASVVCLLNNFYPREAKVQWKVDNALQSGNSQESVTEQDSKDSTYSLSSTLTLSKADYEKHKVYACEVTHQGLSSPVTKSFNRGECGGGGSGGGGSQVQLVQSGGGVVQPGRSLRLSCKASGYTFTRYTMHWVRQAPGKGLEWIGYINPSRGYTNYNQKVKDRFTISRDNSKNTAFLQMDSLRPEDTGVYFCARYYDDHYSLDYWGQGTPVTVSSGGGGSGGGGSGGGGSDIQMTQSPSSLSASVGDRVTITCSASSSVSYMNWYQQTPGKAPKRWIYDTSKLASGVPSRFSGSGSGTDYTFTISSLQPEDIATYYCQQWSSNPFTFGQGTKLQITR
In the case of B37, the Kd [2] is reported as under 1 pM.

B38: Antibody 113 (bispecific antibody, human IgG1, kappa, L234A L235A)
chain 1: not shown
chain 2: B37 chain 2
chain 3: B37 chain 3 with D56S
With B38 the Kd [2] was 32.4 pM.
